US20230257436A1 (published 2023)
Blank lines part the entries; values can stand above or below the molecule they belong to.

Columns and labels:
[1] = biological target: T1, human prosaposin (PSAP) secreted from ARPE-19 cells stably transfected with human PSAP cDNA (human) (UniProt P07602); test: western blot of purified PGRN/PSAP complexes
T1 sequence: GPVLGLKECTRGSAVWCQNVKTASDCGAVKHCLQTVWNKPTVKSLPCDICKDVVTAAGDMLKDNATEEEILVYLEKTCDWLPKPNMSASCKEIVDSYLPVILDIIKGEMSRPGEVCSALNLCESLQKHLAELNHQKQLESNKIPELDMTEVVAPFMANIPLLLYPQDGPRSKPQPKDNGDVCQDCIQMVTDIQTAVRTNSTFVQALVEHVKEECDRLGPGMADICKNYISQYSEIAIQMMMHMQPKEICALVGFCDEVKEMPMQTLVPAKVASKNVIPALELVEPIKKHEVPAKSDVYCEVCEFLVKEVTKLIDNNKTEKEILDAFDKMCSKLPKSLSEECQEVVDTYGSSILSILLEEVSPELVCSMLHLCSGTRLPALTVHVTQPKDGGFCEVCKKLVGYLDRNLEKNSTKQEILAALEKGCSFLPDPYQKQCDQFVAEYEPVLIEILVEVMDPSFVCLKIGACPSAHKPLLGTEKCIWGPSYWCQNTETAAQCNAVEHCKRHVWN

[2] = biological target: T2, endogenous human progranulin (PGRN) in human plasma and CSF (human, UniProt P28799 18-593); test: sandwich ELISA on human plasma and CSF
T2 sequence (looked up): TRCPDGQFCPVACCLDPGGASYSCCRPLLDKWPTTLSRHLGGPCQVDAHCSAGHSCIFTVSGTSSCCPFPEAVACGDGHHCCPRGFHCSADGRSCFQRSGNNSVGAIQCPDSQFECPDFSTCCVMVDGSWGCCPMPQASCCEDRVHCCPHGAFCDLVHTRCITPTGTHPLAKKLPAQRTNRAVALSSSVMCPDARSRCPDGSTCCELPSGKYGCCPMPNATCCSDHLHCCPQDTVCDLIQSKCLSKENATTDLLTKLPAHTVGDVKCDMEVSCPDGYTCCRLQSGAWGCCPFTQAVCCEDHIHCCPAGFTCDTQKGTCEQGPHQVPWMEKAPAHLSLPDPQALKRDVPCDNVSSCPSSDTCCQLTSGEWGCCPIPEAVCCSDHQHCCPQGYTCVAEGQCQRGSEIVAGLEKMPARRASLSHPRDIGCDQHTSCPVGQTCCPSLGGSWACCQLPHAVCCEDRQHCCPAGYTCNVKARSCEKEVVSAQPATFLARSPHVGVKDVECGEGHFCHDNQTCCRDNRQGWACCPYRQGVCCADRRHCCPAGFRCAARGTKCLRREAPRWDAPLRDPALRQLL

[3] = biological target: T3, commercially available recombinant PGRN (R&D Systems; PGRN-His, cat no. 2420-PG) (UniProt P28799 18-593, limits assumed); test: mixing in vitro, western blot
T3 construct: The assay is titled 'Human PGRN/PSAP Complex Assay'; not shown: His tag
T3 sequence (looked up): T2 sequence (looked up)

stoichiometry of PGRN and PSAP in the complex (PGRN:PSAP ratio) [1]: 1
Molecule: human progranulin (PGRN) secreted from ARPE-19 cells stably transfected with the human progranulin gene (pT2.CAn.PGRN plasmid) (from UniProt P28799 18-593) (ligand)

binding result [2]: binds
B1: endogenous human prosaposin (PSAP), as expressed by non-PSAP-transfected ARPE-19 derived cells and as present in human plasma and CSF (ligand, UniProt P07602 17-524, looked up)
chain: T1 sequence

binding result [3]: binds
B2: human prosaposin (PSAP) secreted from ARPE-19 cells stably transfected with human PSAP cDNA (ligand)
chain: T1 sequence
notes: The protein was secreted into conditioned medium; no signal peptide limits are stated; also called ARPE-PSAP; PSAP (#7)
